Drawing on US20130189280A1, this text covers Kd and fold increase of binding affinity against rHSA without heme for two substances.

For assay [1], the target named is human hemoglobin (Sigma) (human) (UniProt P69905).
The target in assay [2] is fibrinogen from human plasma (Sigma) (human) (UniProt P02671). In words: ELISA, fibrinogen titrated on immobilized K1; apparent Kd (FIG. 21).
Assay [3] has as its target complex of recombinant human serum albumin and hemin (rHSA-heme) (human) (UniProt P02768). Kind of assay: ELISA, rHSA-heme against rHSA on immobilized K3 (FIG. 22).
Assay [4] has as its target fibrinogen from human plasma (Sigma) (human) (UniProt P02671). In words: ELISA, fibrinogen titrated on immobilized K3; apparent Kd (FIG. 21).

Regarding “K1 domain (Gly982-Gly1154) of lysine gingipain Kgp from Porphyromonas gingivalis W83, recombinant (from UniProt Q51817 982-1154)”, the values for the Kd in assay [1] and in assay [2] were 360 nM and 1500 nM, respectively.

In the case of “K3 domain (Ala1427-Gly1602) of lysine gingipain Kgp from Porphyromonas gingivalis W83, recombinant, non-tagged (from UniProt Q51817 1427-1602)”, the values for the Kd in assay [1] and in assay [4] were 154 nM and 570 nM, respectively. In assay [3], the fold increase of binding affinity against rHSA without heme was found to be 9 fold.
